In general, stoichiometry N refers to a count of units in the complex or per binding partner.

From publication PMC11491487 come the findings set out here.

Assay [1] addresses chimeric RyR (chiRyR): rabbit RyR1 carrying four Spodoptera frugiperda RyR residues of the diamide-binding pocket (rabbit) (UniProt P11716). The assay can be described thus: cryo-EM structure; 5 mg/ml purified chiRyR samples with 5 mM caffeine, 2 mM ATP, 100 µM CaM1234, Ca2+, 2% or 5% DMSO, with or without diamide (50 µM FLU or TET; 625 µM CHL); 1 h at room temperature; C4 symmetry in refinement.

In assay [2] the target is chiRyR-I4657M/G4819E (chiRyR carrying the two resistance mutations) (rabbit) (UniProt P11716). The description is as above.

As to “chimeric RyR (chiRyR): rabbit RyR1 carrying four Spodoptera frugiperda RyR residues of the diamide-binding pocket, P11716 1-5037 (receptor)”, in assay [1], the stoichiometry N came to 4.

“chiRyR-I4657M/G4819E (chiRyR carrying the two resistance mutations), P11716 1-5037 (receptor)” displayed a stoichiometry N in assay [2] of 4.
